Patent US10295537B2, “Biorecognition elements for rapid detection of biocontamination” (The United States of America, as represented by the …, priority 2017, dated 2019)

Assays:
biotinylated OprF1 = biological target: T1, biotinylated OprF1 (Pseudomonas aeruginosa, UniProt P13794); experiment: Unamplified competitive solution biopanning of 14 monoclonal phages against biotinylated OprF1; percent abundance among 30 clones as relative affinity; assay type: binding, P. aeruginosa; details: Bushnell-Haas pH 8.5 with 1% v/v Jet-A, 30 randomly selected clones
T1 construct: Biotinylated at its N-terminal, an OprF1 synthetic peptide was used for solution biopanning screening
T1 sequence (P13794 whole entry, looked up): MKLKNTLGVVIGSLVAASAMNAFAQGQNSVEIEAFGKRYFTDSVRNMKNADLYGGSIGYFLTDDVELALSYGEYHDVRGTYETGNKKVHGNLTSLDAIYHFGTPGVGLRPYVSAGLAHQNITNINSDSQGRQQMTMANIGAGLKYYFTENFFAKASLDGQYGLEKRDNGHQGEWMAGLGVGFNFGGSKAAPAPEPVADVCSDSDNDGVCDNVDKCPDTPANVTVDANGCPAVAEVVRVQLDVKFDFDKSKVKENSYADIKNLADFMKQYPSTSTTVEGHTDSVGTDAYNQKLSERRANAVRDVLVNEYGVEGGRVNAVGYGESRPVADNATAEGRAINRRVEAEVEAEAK

[1] = biological target: biotinylated bovine serum albumin (BSA) (Bos taurus, UniProt P02769); experiment: Biopanning against biotinylated BSA to identify target-unrelated peptides; assay type: binding; details: phage displaying the peptide, round 3
biotinylated bovine serum albumin (BSA), sequence (P02769 25-607): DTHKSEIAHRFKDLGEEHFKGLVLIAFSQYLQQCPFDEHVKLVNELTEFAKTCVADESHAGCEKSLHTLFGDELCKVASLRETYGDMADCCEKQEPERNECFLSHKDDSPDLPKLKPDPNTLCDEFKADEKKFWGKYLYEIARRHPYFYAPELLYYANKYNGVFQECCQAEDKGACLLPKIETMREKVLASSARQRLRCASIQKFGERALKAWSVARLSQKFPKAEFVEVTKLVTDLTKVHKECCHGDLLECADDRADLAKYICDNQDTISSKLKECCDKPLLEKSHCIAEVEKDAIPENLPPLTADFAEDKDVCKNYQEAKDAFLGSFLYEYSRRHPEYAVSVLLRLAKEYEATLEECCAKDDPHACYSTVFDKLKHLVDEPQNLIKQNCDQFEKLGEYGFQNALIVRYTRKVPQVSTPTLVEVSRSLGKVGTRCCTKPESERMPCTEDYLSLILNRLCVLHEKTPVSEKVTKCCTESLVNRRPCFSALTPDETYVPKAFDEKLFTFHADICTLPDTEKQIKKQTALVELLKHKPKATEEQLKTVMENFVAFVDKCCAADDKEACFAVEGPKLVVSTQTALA
Excerpt: The phage library was then screened to identify target-unrelated peptides by using biotinylated bovine serum albumin (“BSA”) as a target for biopanning.

OprF1 = biological target: T2, OprF1 (Pseudomonas aeruginosa, UniProt P13794); experiment: Solution-phase biopanning of Ph.D.-7 phage library against OprF1 with amplification, physiological conditions, clone abundance; assay type: binding, P. aeruginosa; details: four rounds with amplification, physiological conditions (pH 7)
T2 sequence (P13794 whole entry, looked up): T1 sequence (P13794 whole entry, looked up)
Excerpt: Biotinylated at its N-terminal, an OprF1 synthetic peptide was used for solution biopanning screening of a commercially-available M13 bacteriophage library displaying heptameric peptides at the N-terminal of P3 coat protein. Solution-phase biopanning provided the benefit of including the availability of all the OprF1 aa residues for interaction with the potential peptide binder with lessened likelihood of isolating unspecific peptides that might bind to the capture element used to purify the phage-antigen complex (i.e., magnetic or protein G beads).
Generally, solution-phase biopanning was carried out as described by the manufacturer (New England Biolabs, Ipswich, Mass.) with some modifications, including the changing of pH from 7.0 to 5.5 and 8.5 and adding 1% v/v of Jet A fuel. The first round of selection was carried out by diluting Ph.D.-7 bacteriophage library 100-fold in 0.1% Tris buffer saline plus Tween 20 (0.1% TBST) at the appropriate pH for selection plus fuel. Subsequently, the phage library was incubated with 1 μg of N-terminal biotinylated target protein fragment (OprF1: […] (SEQ. ID No. 1), OprF2: ADIKNLADFMK QYPSTSTT (SEQ. ID No. 2), Opr86: […] STP (SEQ. ID No. 3)) for 1 hr at 25° C. […] Titer of the amplified phage (more than 10^10 pfu/mL) was determined by infection into E. coli ER2738 and subsequent growth in selective medium containing X gal/IPTG. […]

## PPKINIM (Artificial sequence obtained through biopanning.) [target-unrelated, cross-reacts with BSA]
Biotinylated OprF1
  % Abundance: 3%
[1]
  cross-reaction with BSA: cross-react with BSA
OprF1
  abundance based on round 4 clones: 80%
